Data published in patent US20220098307A1 (WUHAN YZY BIOPHARMA, published 2022).
Positions count from the first letter of the chain named. Numbers in names are those of the source.

B1: CEA-M3-DG2 (bispecific antibody)
chain 1: QVQLVQSGSELKKPGASVKVSCKASGYTFTVFGMNWVRQAPGQGLEWMGWINTKTGEATYVEEFKGRFVFSLDTSVSTAYLQISSLKADDTAVYYCARWDFYDYVEAMDYWGQGTTVTVSSASTKGPSVFPLAPSSKSTSGGTAALGCLVKDYFPEPVTVSWNSGALTSGVHTFPAVLQSSGLYSLSSVVTVPSSSLGTQTYICNVNHKPSNTKVDKKVEPKSCGGGGSGGGGSQVQLVESGGGVVQPGRSLRLSCAASGFTFSTYAMNWVRQAPGKGLEWVARIRSKYNNYATYYADSVKDRFTISRDDSKNTLYLQMNSLRAEDTAVYYCARHGNFGNSYVSWFAYWGQGTLVTVSSASVAAPSVFIFPPSDEQLKSGTASVVCLLNNFYPREAKVQWKVDNALQSGNSQESVTEQDSKDSTYSLSSTLTLSKADYEKHKVYACEVTHQGLSSPVTKSFNRGECDKTHTCPPCPAPPVAGPSVFLFPPKPKDTLMISRTPEVTCVVVAVSHEDPEVQFNWYVDGVEVHNAKTKPREEQFNSTFRVVSVLTVVHQDWLNGKEYKCKVSNKGLPAPIEKTISKTKGQPREPQVYTLPPCRDELTKNQVSLWCLVKGFYPSDIAVEWESNGQPENNYKTTPPVLDSDGSFFLYSKLTVDKSRWQQGNVFSCSVMHEALHNHYTQKSLSLSPGK
chain 2: QTVVTQEPSLTVSPGGTVTLTCRSSTGAVTTSNYANWVQQKPGQAPRGLIGGTNKRAPGVPARFSGSLLGGKAALTLSGVQPEDEAEYYCALWYSNLWVFGGGTKVEIKSSASTKGPSVFPLAPSSKSTSGGTAALGCLVKDYFPEPVTVSWNSGALTSGVHTFPAVLQSSGLYSLSSVVTVPSSSLGTQTYICNVNHKPSNTKVDKKVEPKSC
heavy: QVQLVQSGSELKKPGASVKVSCKASGYTFTVFGMNWVRQAPGQGLEWMGWINTKTGEATYVEEFKGRFVFSLDTSVSTAYLQISSLKADDTAVYYCARWDFYDYVEAMDYWGQGTTVTVSSASTKGPSVFPLAPSSKSTSGGTAALGCLVKDYFPEPVTVSWNSGALTSGVHTFPAVLQSSGLYSLSSVVTVPSSSLGTQTYICNVNHKPSNTKVDKKVEPKSCDKTHTCPPCPAPPVAGPSVFLFPPKPKDTLMISRTPEVTCVVVAVSHEDPEVQFNWYVDGVEVHNAKTKPREEQFNSTFRVVSVLTVVHQDWLNGKEYKCKVSNKGLPAPIEKTISKTKGQPREPQVCTLPPSRDELTKNQVSLSCAVKGFYPSDIAVEWESNGQPENNYKTTPPVLDSDGSFFLVSKLTVDKSRWQQGNVFSCSVMHEALHNRFTQKSLSLSPGK
light: DIQMTQSPSSLSASVGDRVTITCKASQNVGTNVAWYQQKPGKAPKLLIYSASYRYSGVPSRFSGSGSGTDFTFTISSLQPEDIATYYCHQYYTYPLFTFGQGTKVEIKRTVAAPSVFIFPPSDEQLKSGTASVVCLLNNFYPREAKVQWKVDNALQSGNSQESVTEQDSKDSTYSLSSTLTLSKADYEKHKVYACEVTHQGLSSPVTKSFNRGEC
notes: structure 3; CEA x CD3; CH2 DG2CH2
B2: CEA-M3-PG2 (bispecific antibody)
chain 1: B1 chain 1 with C475P, A510D
chain 2: B1 chain 2
heavy: B1 heavy with C233P, A268D
light: B1 light
notes: structure 3; CEA x CD3; CH2 PG2CH2
B3: CEA-M3-G2D (bispecific antibody)
chain 1: B1 chain 1 with A510D, D515A
chain 2: B1 chain 2
heavy: B1 heavy with A268D, D273A
light: B1 light
notes: structure 3; CEA x CD3; CH2 G2DCH2
B4: CEA-M3-DG2D (bispecific antibody)
chain 1: B1 chain 1 with D515A
chain 2: B1 chain 2
heavy: B1 heavy with D273A
light: B1 light
notes: structure 3; CEA x CD3; CH2 DG2DCH2
B5: CEA-M3-GG2 (bispecific antibody)
chain 1: B1 chain 1 with C475G, A510D
chain 2: B1 chain 2
heavy: B1 heavy with C233G, A268D
light: B1 light
notes: structure 3; CEA x CD3; CH2 GG2CH2
B6: CEA-M3-SG2 (bispecific antibody)
chain 1: B1 chain 1 with C475S, A510D
chain 2: B1 chain 2
heavy: B1 heavy with C233S, A268D
light: B1 light
notes: structure 3 (fusion heavy chain, cross light chain, heavy, light; the light chain pairs with the heavy and with the fusion heavy chain); CEA x CD3; CH2 SG2CH2
B7: M2IC-WT (bispecific antibody, human IgG1, kappa)
chain: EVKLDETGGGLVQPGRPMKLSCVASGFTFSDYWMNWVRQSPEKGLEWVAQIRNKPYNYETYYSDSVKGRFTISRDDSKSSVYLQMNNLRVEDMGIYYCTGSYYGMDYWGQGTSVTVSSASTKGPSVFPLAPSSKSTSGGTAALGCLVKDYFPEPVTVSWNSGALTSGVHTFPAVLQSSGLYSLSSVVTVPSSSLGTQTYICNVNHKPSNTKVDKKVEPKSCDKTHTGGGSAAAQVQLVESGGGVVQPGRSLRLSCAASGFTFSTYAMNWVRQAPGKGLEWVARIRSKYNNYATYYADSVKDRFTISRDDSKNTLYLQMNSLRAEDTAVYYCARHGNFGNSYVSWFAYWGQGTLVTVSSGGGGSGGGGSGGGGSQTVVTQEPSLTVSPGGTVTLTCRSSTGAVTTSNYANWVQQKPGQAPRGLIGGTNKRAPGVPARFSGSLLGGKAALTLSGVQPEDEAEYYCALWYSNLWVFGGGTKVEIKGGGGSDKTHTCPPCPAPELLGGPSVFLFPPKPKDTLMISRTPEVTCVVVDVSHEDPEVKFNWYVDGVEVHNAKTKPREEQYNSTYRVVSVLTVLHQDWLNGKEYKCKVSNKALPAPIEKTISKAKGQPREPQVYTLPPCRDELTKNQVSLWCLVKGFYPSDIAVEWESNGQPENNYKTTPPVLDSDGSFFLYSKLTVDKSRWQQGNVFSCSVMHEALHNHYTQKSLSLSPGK
heavy: EVKLDETGGGLVQPGRPMKLSCVASGFTFSDYWMNWVRQSPEKGLEWVAQIRNKPYNYETYYSDSVKGRFTISRDDSKSSVYLQMNNLRVEDMGIYYCTGSYYGMDYWGQGTSVTVSSASTKGPSVFPLAPSSKSTSGGTAALGCLVKDYFPEPVTVSWNSGALTSGVHTFPAVLQSSGLYSLSSVVTVPSSSLGTQTYICNVNHKPSNTKVDKKVEPKSCDKTHTCPPCPAPELLGGPSVFLFPPKPKDTLMISRTPEVTCVVVDVSHEDPEVKFNWYVDGVEVHNAKTKPREEQYNSTYRVVSVLTVLHQDWLNGKEYKCKVSNKALPAPIEKTISKAKGQPREPQVCTLPPSRDELTKNQVSLSCAVKGFYPSDIAVEWESNGQPENNYKTTPPVLDSDGSFFLVSKLTVDKSRWQQGNVFSCSVMHEALHNRFTQKSLSLSPGK
light: DVVMTQTPLSLPVSLGDQASISCRSSQSLVHSNGNTYLRWYLQKPGQSPKVLIYKVSNRFSGVPDRFSGSGSGTDFTLKISRVEAEDLGVYFCSQSTHVPWTFGGGTKLEIKRTVAAPSVFIFPPSDEQLKSGTASVVCLLNNFYPREAKVQWKVDNALQSGNSQESVTEQDSKDSTYSLSSTLTLSKADYEKHKVYACEVTHQGLSSPVTKSFNRGEC
notes: structure 2 isotype control; CH2 WT
B8: M2IC-AAG (bispecific antibody, human IgG1, kappa, L234A L235A)
chain: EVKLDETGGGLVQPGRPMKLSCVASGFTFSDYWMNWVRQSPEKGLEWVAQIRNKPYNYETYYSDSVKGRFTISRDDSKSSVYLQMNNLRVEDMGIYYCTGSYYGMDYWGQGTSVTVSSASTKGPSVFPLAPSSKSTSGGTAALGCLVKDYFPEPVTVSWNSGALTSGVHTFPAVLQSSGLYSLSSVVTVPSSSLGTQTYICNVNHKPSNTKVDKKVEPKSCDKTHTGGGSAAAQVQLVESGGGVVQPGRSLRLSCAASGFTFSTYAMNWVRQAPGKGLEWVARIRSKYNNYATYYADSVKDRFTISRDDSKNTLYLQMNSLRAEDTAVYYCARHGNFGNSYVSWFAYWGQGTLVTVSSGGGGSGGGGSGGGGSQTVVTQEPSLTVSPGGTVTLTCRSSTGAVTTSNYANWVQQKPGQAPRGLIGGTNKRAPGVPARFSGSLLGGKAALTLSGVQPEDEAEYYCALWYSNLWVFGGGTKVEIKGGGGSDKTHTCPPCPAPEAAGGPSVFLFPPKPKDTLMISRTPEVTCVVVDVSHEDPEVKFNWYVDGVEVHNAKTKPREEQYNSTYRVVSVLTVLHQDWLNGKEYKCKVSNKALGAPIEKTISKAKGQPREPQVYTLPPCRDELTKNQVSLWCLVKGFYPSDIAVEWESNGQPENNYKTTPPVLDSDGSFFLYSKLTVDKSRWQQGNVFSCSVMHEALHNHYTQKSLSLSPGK
heavy: B7 heavy with L235A, L236A, P330G
light: B7 light
notes: structure 2 isotype control; CH2 AAG
B9: M2IC-FES (bispecific antibody, human IgG1, kappa)
chain: EVKLDETGGGLVQPGRPMKLSCVASGFTFSDYWMNWVRQSPEKGLEWVAQIRNKPYNYETYYSDSVKGRFTISRDDSKSSVYLQMNNLRVEDMGIYYCTGSYYGMDYWGQGTSVTVSSASTKGPSVFPLAPSSKSTSGGTAALGCLVKDYFPEPVTVSWNSGALTSGVHTFPAVLQSSGLYSLSSVVTVPSSSLGTQTYICNVNHKPSNTKVDKKVEPKSCDKTHTGGGSAAAQVQLVESGGGVVQPGRSLRLSCAASGFTFSTYAMNWVRQAPGKGLEWVARIRSKYNNYATYYADSVKDRFTISRDDSKNTLYLQMNSLRAEDTAVYYCARHGNFGNSYVSWFAYWGQGTLVTVSSGGGGSGGGGSGGGGSQTVVTQEPSLTVSPGGTVTLTCRSSTGAVTTSNYANWVQQKPGQAPRGLIGGTNKRAPGVPARFSGSLLGGKAALTLSGVQPEDEAEYYCALWYSNLWVFGGGTKVEIKGGGGSDKTHTCPPCPAPEFEGGPSVFLFPPKPKDTLMISRTPEVTCVVVDVSHEDPEVKFNWYVDGVEVHNAKTKPREEQYNSTYRVVSVLTVLHQDWLNGKEYKCKVSNKALPASIEKTISKAKGQPREPQVYTLPPCRDELTKNQVSLWCLVKGFYPSDIAVEWESNGQPENNYKTTPPVLDSDGSFFLYSKLTVDKSRWQQGNVFSCSVMHEALHNHYTQKSLSLSPGK
heavy: B7 heavy with L235F, L236E, P332S
light: B7 light
notes: structure 2 isotype control; CH2 FES
B10: M2IC-NA (bispecific antibody, human IgG1, kappa, N297A)
chain: B9 chain with F501L, E502L, N564A, S598P
heavy: B7 heavy with N298A
light: B7 light
notes: structure 2 isotype control; CH2 N297A

Legend:
Human CD3ε = molecular target: T1, Human CD3ε (human, UniProt P07766 23-126); assay: flow cytometry, human T cells
T1 construct: CD3 on T cells isolated from human whole blood
In short: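 First, cells were plated on ice at 2×10⁵ per well; second, antibody dilutions (top 3000 nM, 3-fold steps) were added for 2 h at 4° C; third, after washing, PE anti-human IgG Fc (final 8 ug/ml) was added for 1 h at 4° C. EC50 was then fitted from MFI versus concentration.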

human CEA = molecular target: T2, human CEA (human, UniProt P06731 35-685); assay: flow cytometry, human tumor cells (CEA+)
T2 sequence: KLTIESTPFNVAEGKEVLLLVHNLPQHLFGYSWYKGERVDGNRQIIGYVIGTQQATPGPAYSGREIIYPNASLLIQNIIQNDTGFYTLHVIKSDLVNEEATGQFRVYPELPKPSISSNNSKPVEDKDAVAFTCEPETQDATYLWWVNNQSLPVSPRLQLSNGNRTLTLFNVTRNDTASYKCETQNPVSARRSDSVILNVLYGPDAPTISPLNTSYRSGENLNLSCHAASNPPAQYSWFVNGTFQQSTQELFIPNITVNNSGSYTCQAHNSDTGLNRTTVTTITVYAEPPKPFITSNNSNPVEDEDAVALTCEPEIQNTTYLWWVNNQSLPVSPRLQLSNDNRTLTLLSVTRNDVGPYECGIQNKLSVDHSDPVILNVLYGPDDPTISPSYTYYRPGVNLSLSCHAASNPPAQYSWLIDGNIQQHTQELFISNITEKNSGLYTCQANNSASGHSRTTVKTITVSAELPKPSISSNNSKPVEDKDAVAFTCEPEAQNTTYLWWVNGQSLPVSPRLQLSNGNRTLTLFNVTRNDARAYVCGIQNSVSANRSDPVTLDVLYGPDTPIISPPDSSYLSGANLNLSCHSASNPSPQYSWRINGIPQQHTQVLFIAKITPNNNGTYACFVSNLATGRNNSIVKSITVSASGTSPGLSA
Description: (§1) 1) Cell preparation: T cells isolated from CD3-positive human whole blood were used for a CD3 end affinity detection of multifunctional antibody molecule; positive tumor cells of corresponding antigen were used for detecting affinity of tumor antigen; for example, CD38-positive MM. 1S cells (purchased from the Cell Resource Center of Shanghai Institutes for Biological Sciences, Chinese Academy of Sciences) or RPMI 8226 cells (purchased from the Cell Resource Center of Shanghai Institutes for Biological Sciences, Chinese Academy of Sciences) were used for CD38 antigen detection, and PD-L1 positive H358 cells (purchased from the Cell Resource Center of Shanghai Institutes for Biological Sciences, Chinese Academy of Sciences) were used for PD-L1 antigen detection, and so on. The cells were resuspended with 1% FBS-PBS, adjusted to a density of 4×10⁶/ml, and 50 μl of cells were taken from each well, and then plated at 2×10⁵ per well. Cell plating was operated on ice
(§2) 2) Addition of the antibody: according to the experimental design, the antibody was diluted gradually, and dilution of antibody was operated on ice. For example, the initial concentration of antibody for dilution was 3000 nM, and the antibody was diluted by 3 times with 11 concentration gradients. The diluted antibody was added to a cell well at 50 μl per well, mixed well, and shaked and incubated at 4° C. 1100 rpm/min for 2 h; after washing, the cells were resuspend in 1% FBS-PBS, and a diluted secondary antibody PE anti-human IgG FC (Biolegend, 409304) was added with a final concentration of 8 ug/ml and a volume of 50 μl/well. At the same time, a well only added with cells and secondary antibody was set as a control, the components were mixed well, and incubated under shaking at 1100 rpm/min at 4° C. for 1 h;
(§3) 5) Data analysis: the data was analyzed by a flow analysis software FlowJo 7.6 thereby obtaining an average fluorescence intensity of the specific antibody concentration, plotted by a Graphpad Prism 5 with the antibody concentration (nM) as an abscissa and the average fluorescence intensity as an ordinate; the EC50 value was calculated by the method of One site—Specific binding, and the EC50 value indicated the cell affinity of the antibody to the corresponding target antigen.

Monkey CD3 = molecular target: T3, Monkey CD3 (monkey); assay: flow cytometry, monkey T cells
T3 construct: whole, on cells; also called CD3 of monkey CD3 positive T cells

Human BCMA = molecular target: T4, Human BCMA (human, UniProt Q02223 1-54); assay: flow cytometry, human tumor cells (table of the BCMA series)
T4 sequence: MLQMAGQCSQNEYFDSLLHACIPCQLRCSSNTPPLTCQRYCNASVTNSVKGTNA
Description: as §1, §2, §3

| Binder | EC50 (Human CD3ε) | EC50 (human CEA) | EC50 (Monkey CD3) | binding result (Human BCMA) |
| --- | --- | --- | --- | --- |
| B1 | 609 nM | 31.9 nM | – | – |
| B2 | 654 nM | 41.9 nM | – | – |
| B3 | 670 nM | 38.4 nM | – | – |
| B4 | 611 nM | 34.2 nM | – | – |
| B5 | 695 nM | 39.1 nM | – | – |
| B6 | 631 nM | 30.5 nM | – | – |
| B7 | 499 nM | – | 540 nM | no binding |
| B8 | 515 nM | – | 528 nM | no binding |
| B9 | 411 nM | – | 506 nM | no binding |
| B10 | 547 nM | – | 561 nM | no binding |
